{
  "source": "patent US6656718B2",
  "about": "“Modified carboxypeptidase enzymes and their use” (Cancer Research Technology Limited, priority 2000, dated 2003)",
  "molecules": {"B1": {"name": "wild-type CPG2: MFE-23::CPG2 fusion protein with wild-type CPG2: Region 1 KEYGVRD (SEQ ID NO:2), Region 2 GAGK (SEQ ID NO:4) (protein)", "chain": "ALAQKRDNVLFQAATDEQPAVIKTLEKLVNIETGTGDAEGIAAAGNFLEAELKNLGFTVTRSKSAGLVVGDNIVGKIKGRGGKNLLLMSHMDTVYLKGILAKAPFRVEGDKAYGPGIADDKGGNAVILHTLKLLKEYGVRDYGTITVLFNTDEEKGSFGSRDLIQEEAKLADYVLSFEPTSAGDEKLSLGTSGIAYVQVNITGKASHAGAAPELGVNALVEASDLVLRTMNIDDKAKNLRFNWTIAKAGNVSNIIPASATLNADVRYARNEDFDAAMKTLEERAQQKKLPEADVKVIVTRGRPAFNAGEGGKKLVDKAVAYYKEAGGTLGVEERTGGGTDAAYAALSGKPVIESLGLPGFGYHSDKAEYVDISAIPRRLYMAARLIMDLGAGK"}},
  "key": {"CM79": {"system": "CM79", "experiment": "CM79 binding to CPG2 variants by ELISA", "design": "species or system mice", "details": "clarified culture supernatants", "from_the_text": "CM79 binding and CPG2 enzyme activity of all CPG2 variants were initially tested in clarified culture supernatants for CM79 binding."}, "[1]": {"experiment": "CPG2 enzyme activity of variants", "type": "biochemical", "details": "clarified culture supernatants", "from_the_text": "Thus for example, CPG2 activity may be tested by the ability of the enzyme to hydrolyse methotrexate (MTX). CPG2 hydrolysis of MTX results in a change in absorbance at 320 nm which may be measured by spectrophotometry. CPG2 catalytic activity in solid tissues can be assayed using an indirect HPLC method, measuring, for example, 2,4-diamino-N^10 methypteroic acid (DAMPA, a metabolite of MTX).\nCM79 binding and CPG2 enzyme activity of all CPG2 variants were initially tested in clarified culture supernatants for CM79 binding. […] The variant V8 MFE-23::CPG2 indicated the role of the c-terminus in CM79 binding of CPG2 (FIG. 4, Table 1). CM79 bound to all the remaining CPG2 variants (Table 1).\nRadiolabelled proteins were FPLC purified using a Superose 12 column (Pharmacia; PBS mobile phase 0.5 ml/min). Gamma radiation emitting fractions at 135 kDa elution point were tested for CPG2 enzyme activity. Protein concentrations were determined using Lowry reagent according to the manufacturer's protocol (BioRad)."}},
  "data": [
    {"molecule": "B1", "values": [
      {"measurement": "CM79 binding", "setting": "CM79", "value": "Yes"},
      {"measurement": "Enzyme Activity", "setting": "[1]", "value": "Yes"}
    ]}
  ]
}
